T1: human C1s mutant M5 (K336G) (human, UniProt P09871 16-688)
T1 construct: The entry is the mutant itself
T1 sequence: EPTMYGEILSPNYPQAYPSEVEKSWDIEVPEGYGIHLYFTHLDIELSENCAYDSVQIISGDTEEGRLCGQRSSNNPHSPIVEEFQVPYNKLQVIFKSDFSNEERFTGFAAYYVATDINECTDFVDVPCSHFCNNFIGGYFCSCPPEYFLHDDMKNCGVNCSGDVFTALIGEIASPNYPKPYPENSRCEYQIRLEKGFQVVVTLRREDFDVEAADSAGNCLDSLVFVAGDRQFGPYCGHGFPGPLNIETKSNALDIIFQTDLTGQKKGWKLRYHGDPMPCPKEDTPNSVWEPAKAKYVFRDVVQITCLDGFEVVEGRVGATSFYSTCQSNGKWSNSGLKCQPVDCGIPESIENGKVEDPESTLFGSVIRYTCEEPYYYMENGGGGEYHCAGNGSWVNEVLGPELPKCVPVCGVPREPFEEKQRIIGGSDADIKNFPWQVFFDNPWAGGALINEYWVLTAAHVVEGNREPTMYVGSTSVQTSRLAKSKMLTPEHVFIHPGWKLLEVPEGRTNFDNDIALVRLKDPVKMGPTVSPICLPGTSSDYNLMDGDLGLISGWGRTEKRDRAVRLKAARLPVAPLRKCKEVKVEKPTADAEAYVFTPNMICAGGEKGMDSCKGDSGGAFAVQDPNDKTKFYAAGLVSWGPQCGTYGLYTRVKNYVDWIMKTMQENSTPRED

T2: active human C1s (CompTech A104 C1s Enzyme) (human, UniProt P09871 16-688)
T2 construct: also called human active C1s; active C1s protein
T2 sequence (looked up): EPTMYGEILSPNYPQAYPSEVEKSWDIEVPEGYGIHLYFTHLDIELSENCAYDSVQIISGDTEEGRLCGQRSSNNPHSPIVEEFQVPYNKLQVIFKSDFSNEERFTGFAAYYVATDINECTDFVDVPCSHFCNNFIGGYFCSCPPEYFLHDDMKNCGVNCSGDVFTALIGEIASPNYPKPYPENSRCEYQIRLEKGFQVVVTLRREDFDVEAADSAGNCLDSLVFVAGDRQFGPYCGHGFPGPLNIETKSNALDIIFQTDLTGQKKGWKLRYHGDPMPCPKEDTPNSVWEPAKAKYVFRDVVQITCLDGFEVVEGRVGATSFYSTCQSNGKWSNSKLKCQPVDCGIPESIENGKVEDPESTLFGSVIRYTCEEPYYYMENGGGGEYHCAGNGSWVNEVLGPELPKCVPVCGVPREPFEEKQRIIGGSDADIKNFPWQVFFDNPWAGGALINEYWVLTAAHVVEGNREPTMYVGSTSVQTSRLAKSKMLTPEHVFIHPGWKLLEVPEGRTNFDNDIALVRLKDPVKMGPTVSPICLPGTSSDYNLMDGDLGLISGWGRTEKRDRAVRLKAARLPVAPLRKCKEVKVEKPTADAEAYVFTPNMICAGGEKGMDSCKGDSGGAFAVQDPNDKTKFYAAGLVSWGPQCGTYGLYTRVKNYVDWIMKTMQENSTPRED


Tests used:
[1] = molecular target: T1, human C1s mutant M5 (K336G); test: ELISA, plate coated with human C1s mutant M5: K336G, OD450nm
Protocol: ELISA was carried out by first coating 96-well plates with 200 ng/well of full-length or truncated C1s proteins overnight. The next morning, plates were blocked with SuperBlock T20 blocking buffer (Thermo Scientific 37536) for 1 h with gentle shaking. Then, various concentrations of anti-C1s antibodies diluted in SuperBlock T20 blocking buffer were added to the plates and incubated for 1 h with gentle shaking. Mouse IgG (Sigma-Aldrich 15381) and human IgG1 (BioXCell BP0297) were used as negative controls. The plates were washed before incubating with HRP conjugated secondary antibodies diluted in SuperBlock T20 blocking buffer (goat anti-mouse IgG (H+L) cross-adsorbed secondary antibody HRP (Invitrogen G-21040) or goat anti-human IgG antibody, HRP conjugate (Millipore AP309P)) for 1 h with gentle shaking. At last, the plates were washed and color developed with ELISA liquid HRP substrate (Sigma-Aldrich), followed by stopping the reaction with addition of 1M H₂SO₄ in the same volume as the ELISA liquid substrate. Bound antibody was measured by absorbance at OD₄₅₀ₙₘ.
Binding of anti-C1s antibodies to mutants M1-M20 of human C1s was measured by ELISA as described in Example 4, and results are shown in FIGS. 6B-6U. […]

[2] = molecular target: T2, active human C1s (CompTech A104 C1s …); test: BLI (Octet RED96e), antibody on AHC biosensor; HuC1s Form: Active; R^2 0.9994
Protocol: Bio-Layer Interferometry technology was used for anti-C1s antibody affinity measurement and binding kinetics determinations with OCTET® RED96e system (Sartorius AG). Pre-hydrated Anti-Human IgG Fc Capture (AHC) biosensors were first equilibrated in 1×KB (Kinetic Buffer, 1×PBS pH 7.4+0.02% Tween-20+0.1% BSA) for 120 sec for the first baseline, followed by loading with […] anti-C1s antibody (2-7, FIG. 3A; 2-8, FIG. 3B; hz2-7(H1L2), FIG. 3C; hz2-8(H1L2 G80A/T82A, FIG. 3D) onto AHC biosensors for 240 sec. Then, the second baseline signal was established for 120 sec before association with various concentrations of active human C1s (CompTech A104) for 240-360 sec. At last, analyte was dissociated in 1×KB for 360 sec. Anti-C1s antibodies 2-7 and 2-8 were also analyzed against human C1s proenzyme (CompTech A103) (data not shown). Data analysis was carried out using OCTET® Data Analysis HT Software (Sartorius AG). KD, kₒₙ, koff and R² values were calculated for each antibody and target combination, as summarized in FIG. 3E showing high affinity binding with KD values in the low nanomolar to picomolar range.

Row | EC50 [1] | Kd [2] | koff [2] | kon [2] | Binder
1 | 0.015 µg/mL |  |  |  | Anti-C1s antibody hz2-7(H1L2) (antibody, V domains shown, Humanized, human IgG1 / kappa; also called hz2-7(1L2)) VH: EVQLLESGGGLVQPGGSLRLSCAASGFTFSNYFMNWVRQAPGKGLEWVSEIRLKFTNYATHYADSVKGRFTISRDDSKSTLYLQMNSLRAEDTAVYYCTRDYGSRNGYFDYWGQGTLVTVSS VL: DIVMTQTPLSLPVTPGEPASISCRSSKSLLHSNGNTFLYWFLQKPGQSPQLLIYRMSNLASGVPDRFSGSGSGTDFTLKISRVEAEDVGVYYCMQHLEYPYTFGGGTKLEIKR
2 |  | 0.14 nM | 4.8e-05 s⁻¹ | 350000 M⁻¹ s⁻¹ | Anti-C1s antibody 2-7 (antibody, human IgG1, kappa, V domains shown, the HC/LC entries may hold it too; also called clone 2-7) VH: EVKLEESGGGLVPPGGSMKLSCVASGFTFSNYFMNWVRQSPEKGLEWVAEIRLKFTNYATHYAESVEGRFTISRDDSKSSVYLQMNNLRAEDTGIYYCTRDYGSRNGYFDYWGQGTTLTVSS VL: DIVMTQAAPSVPVTPGESVSISCRSSKSLLHSNGNTFLYWFLQRPGQSPQLLIYRMSNLASGVPDRFSGSGSGTAFTLRVSRVEAEDVGIYYCMQHLEYPYTFGGGTKLEIKT

Reference: patent US20230051715A1 (MABWELL THERAPEUTICS, published 2023)
